Measurements: the supplement of paper PMC10724198
± gives the standard deviation of the averaged measurements.

Tests used:
Saccharomyces cerevisiae [1] = test: protein stability index of tFT-peptide fusion (C-terminal peptide) (PSI (0-1 scale)); higher = more stable (slower turnover); settings: genetic background: wild type; temperature: 30 C
Saccharomyces cerevisiae [2] = test: as above
Description: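 MPS profiling in S. cerevisiae of the tFT-X12 degron library: putative degron peptides plus stable controls, 12 aa, fused to the C-terminus of a sfGFP-mCherry timer. Cells are FACS-sorted into 8 mCherry/sfGFP bins and deep-sequenced. PSI runs from 0 (unstable) to 1 (stable). Backgrounds are wild type, das1Δ and doa10Δ at 30 °C, and wild type, das1Δ, cdc34-1 and cdc53-1 at 37 °C; 2-3 technical replicates each.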

[3] = genetic background: cdc34-1, temperature: 37 C
[4] = genetic background: cdc53-1, temperature: 37 C
[5] = genetic background: das1 deletion, temperature: 30 C
[6] = genetic background: das1 deletion, temperature: 37 C
[7] = genetic background: doa10 deletion, temperature: 30 C
[8] = genetic background: wild type, temperature: 30 C
[9] = genetic background: wild type, temperature: 37 C
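Further: PSI is a weighted mean of sequencing reads over stability bins, variants kept only with over 10 reads, mCherry proximal and sfGFP distal, peptide attached via GGGS linker.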

| Sequence | protein stability index (Saccharomyces cerevisiae [1]) | protein stability index (Saccharomyces cerevisiae [2]; [3]) | protein stability index (Saccharomyces cerevisiae [2]; [4]) | protein stability index (Saccharomyces cerevisiae [2]; [5]) | protein stability index (Saccharomyces cerevisiae [2]; [6]) | protein stability index (Saccharomyces cerevisiae [2]; [7]) | protein stability index (Saccharomyces cerevisiae [2]; [8]) | protein stability index (Saccharomyces cerevisiae [2]; [9]) |
| --- | --- | --- | --- | --- | --- | --- | --- | --- |
| FFCSILLGIILL | 0.399 ± 0.04 | 0.385 ± 0.014 | 0.401 ± 0.0091 | 0.364 ± 0.029 | 0.507 ± 0.016 | 0.47 ± 0.0098 | 0.37 ± 0.033 | 0.451 ± 0.011 |
| FFFCFFIFCFSL | 0.3698 ± 0.0032 | 0.327 ± 0.005 | 0.409 ± 0.025 | 0.333 ± 0.026 | 0.463 ± 0.013 | 0.335 ± 0.046 | 0.324 ± 0.015 | 0.396 ± 0.036 |
| FFFFSFFLATFS | 0.305 ± 0.026 | 0.227 ± 0.018 | 0.36 ± 0.016 | 0.288 ± 0.055 | 0.418 ± 0.013 | 0.264 ± 0.029 | 0.26 ± 0.036 | 0.39074 ± 0.00019 |
| FFGVFIFPVSCR | 0.291 ± 0.022 | 0.203 ± 0.013 | 0.226 ± 0.019 | 0.204 ± 0.028 | 0.292 ± 0.01 | 0.174 ± 0.0071 | 0.209 ± 0.032 | 0.291 ± 0.028 |
| FFGVLFRVSLFF | 0.266 ± 0.035 | 0.12 ± 0.035 | 0.22 ± 0.011 | 0.191 ± 0.022 | 0.3075 ± 0.0027 | 0.175 ± 0.0079 | 0.173 ± 0.017 | 0.262 ± 0.0057 |
| FFLLLLRPPLVM | 0.374 ± 0.051 | 0.34 ± 0.035 | 0.363 ± 0.0046 | 0.275 ± 0.035 | 0.4464 ± 0.0041 | 0.276 ± 0.0029 | 0.267 ± 0.03 | 0.41225 ± 0.0001 |
| FFRFCFLLLASS | 0.25 ± 0.061 | 0.303 ± 0.011 | 0.335 ± 0.01 | 0.221 ± 0.024 | 0.4 ± 0.01 | 0.197 ± 0.019 | 0.188 ± 0.013 | 0.355 ± 0.011 |
| FFSRSLGAGVAA | 0.644 ± 0.21 | 0.71 ± 0.037 | 0.747 ± 0.044 | 0.602 ± 0.028 | 0.715 ± 0.041 | 0.5962 ± 0.0036 | 0.604 ± 0.013 | 0.724 ± 0.033 |
| FFVEFFLLCFCS | 0.476 ± 0.0053 | 0.497 ± 0.023 | 0.498 ± 0.024 | 0.463 ± 0.057 | 0.503 ± 0.036 | 0.476 ± 0.0075 | 0.472 ± 0.019 | 0.515 ± 0.033 |
| FFVSFFFFLWLV | 0.228 ± 0.0027 | 0.204 ± 0.011 | 0.181 ± 0.024 | 0.204 ± 0.011 | 0.261 ± 0.014 | 0.278 ± 0.038 | 0.161 ± 0.018 | 0.189 ± 0.015 |
| FGFFDIKLPVVA | 0.486 ± 0.018 | 0.515 ± 0.037 | 0.51 ± 0.022 | 0.38 ± 0.024 | 0.5539 ± 0.0013 | 0.345 ± 0.012 | 0.373 ± 0.041 | 0.518 ± 0.017 |
| FGVECDLCLFCC | 0.376 ± 0.018 | 0.617 ± 0.07 | 0.6837 ± 0.0031 | 0.572 ± 0.0088 | 0.692 ± 0.03 | 0.2392 ± 0.0022 | 0.257 ± 0.014 | 0.46 ± 0.015 |
| FGVVRVSIPVGV | 0.368 ± 0.012 | 0.211 ± 0.024 | 0.203 ± 0.02 | 0.227 ± 0.038 | 0.3584 ± 0.0023 | 0.184 ± 0.005 | 0.233 ± 0.024 | 0.316 ± 0.007 |
| FIFCLSCGVWGG | 0.414 ± 0.02 | 0.5052 ± 0.0007 | 0.583 ± 0.027 | 0.478 ± 0.039 | 0.593 ± 0.023 | 0.49 ± 0.026 | 0.466 ± 0.012 | 0.5582 ± 0.0053 |
| FILLFGFSHWVW | 0.4316 ± 0.0023 | 0.449 ± 0.033 | 0.523 ± 0.023 | 0.375 ± 0.028 | 0.5333 ± 0.0017 | 0.364 ± 0.019 | 0.37 ± 0.03 | 0.476 ± 0.036 |
| FILLTLVFGCAS | 0.309 ± 0.025 | 0.188 ± 0.0054 | 0.313 ± 0.025 | 0.228 ± 0.02 | 0.424 ± 0.0066 | 0.196 ± 0.0089 | 0.22 ± 0.035 | 0.375 ± 0.0071 |
| FLAFLEPRVCCA | 0.343 ± 0.013 | 0.23 ± 0.037 | 0.231 ± 0.036 | 0.246 ± 0.019 | 0.354 ± 0.0058 | 0.21 ± 0.0091 | 0.228 ± 0.031 | 0.33 ± 0.029 |
| FLAFSYIRLLFF | 0.237 ± 0.012 | 0.468 ± 0.05 | 0.463 ± 0.019 | 0.454 ± 0.026 | 0.6128 ± 0.0054 | 0.135 ± 0.017 | 0.122 ± 0.023 | 0.178 ± 0.031 |
| FLCWLSFIPLLS | 0.38 ± 0.02 | 0.203 ± 0.0093 | 0.164 ± 0.007 | 0.293 ± 0.034 | 0.366 ± 0.0095 | 0.418 ± 0.019 | 0.256 ± 0.017 | 0.32 ± 0.015 |
| FLFFCGWVSLFG | 0.424 ± 0.024 | 0.408 ± 0.024 | 0.4636 ± 0.0024 | 0.394 ± 0.033 | 0.4966 ± 0.0014 | 0.333 ± 0.0056 | 0.364 ± 0.023 | 0.479 ± 0.025 |
| FLFFMGVGVVLY | 0.295 ± 0.013 | 0.285 ± 0.032 | 0.382 ± 0.029 | 0.314 ± 0.025 | 0.452 ± 0.023 | 0.35 ± 0.039 | 0.325 ± 0.025 | 0.425 ± 0.0071 |
| FLFIFFFFLISF | 0.284 ± 0.018 | 0.208 ± 0.018 | 0.1806 ± 0.00038 | 0.256 ± 0.02 | 0.311 ± 0.027 | 0.344 ± 0.0055 | 0.242 ± 0.021 | 0.295 ± 0.011 |
| FLFLFLFPFSLI | 0.431 ± 0.0054 | 0.525 ± 0.047 | 0.571 ± 0.0084 | 0.476 ± 0.016 | 0.567 ± 0.009 | 0.393 ± 0.0097 | 0.386 ± 0.0079 | 0.4997 ± 0.0009 |
| FLIFGMVDFAVV | 0.331 ± 0.018 | 0.247 ± 0.035 | 0.3554 ± 0.0029 | 0.231 ± 0.04 | 0.3883 ± 0.0012 | 0.202 ± 0.0019 | 0.226 ± 0.019 | 0.387 ± 0.035 |
| FLIFVVIGGVGL | 0.2837 ± 0.0028 | 0.259 ± 0.0043 | 0.395 ± 0.016 | 0.281 ± 0.027 | 0.466 ± 0.013 | 0.2268 ± 0.0012 | 0.276 ± 0.023 | 0.435 ± 0.057 |
| FLLELRFTCSYS | 0.431 ± 0.013 | 0.383 ± 0.026 | 0.454 ± 0.021 | 0.407 ± 0.014 | 0.4415 ± 0.00066 | 0.403 ± 0.013 | 0.406 ± 0.023 | 0.4158 ± 0.0028 |
| FLLFFVLRLLPC | 0.316 ± 0.018 | 0.272 ± 0.0094 | 0.293 ± 0.03 | 0.236 ± 0.035 | 0.396 ± 0.016 | 0.255 ± 0.013 | 0.231 ± 0.026 | 0.376 ± 0.011 |
| FLPGEAVFVYCR | 0.4334 ± 0.0032 | 0.619 ± 0.016 | 0.616 ± 0.037 | 0.372 ± 0.026 | 0.627 ± 0.011 | 0.365 ± 0.017 | 0.391 ± 0.028 | 0.64997 ± 0.00056 |
| FLSVGFSCSFVC | 0.4939 ± 0.00094 | 0.674 ± 0.082 | 0.676 ± 0.034 | 0.599 ± 0.06 | 0.669 ± 0.04 | 0.375 ± 0.024 | 0.4115 ± 0.0017 | 0.609 ± 0.013 |
| FLSVLPLFAFFA | 0.333 ± 0.0081 | 0.581 ± 0.026 | 0.658 ± 0.045 | 0.552 ± 0.025 | 0.68 ± 0.028 | 0.219 ± 0.011 | 0.258 ± 0.014 | 0.4221 ± 0.0032 |
